# Source: publication PMC9482650, “Quantitative fragmentomics allow affinity mapping of interactomes” (Nature Communications, 2022)
# Target: T1, CARD11, Q9BXL7
# T1 sequence (Q9BXL7 662-765, limits assumed, looked up): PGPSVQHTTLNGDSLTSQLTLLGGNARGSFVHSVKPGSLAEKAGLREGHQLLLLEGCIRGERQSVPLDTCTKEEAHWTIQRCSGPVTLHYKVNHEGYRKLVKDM
# Test: holdup assay
# Set-up: key: below the threshold = too weak to quantify, mostly under pKd 3.1 to 4
# Conditions: plain residues with an end cap or a label only (N-terminal biotin on a linker: ado-ado)
row,Binder,pKd
1,"AKPSRISTVV [IQSEC2, Q5JU85]",below the threshold

# Target: T2, DFNB31_2, Q9P202
# T2 sequence (Q9P202 274-371, limits assumed, looked up): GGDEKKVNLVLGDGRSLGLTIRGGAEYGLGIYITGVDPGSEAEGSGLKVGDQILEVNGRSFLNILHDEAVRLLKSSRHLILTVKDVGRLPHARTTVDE
# Test: holdup assay
# Set-up: key: below the threshold = too weak to quantify, mostly under pKd 3.1 to 4
# Conditions: plain residues with an end cap or a label only (N-terminal biotin on a linker: ado-ado)
row,Binder,pKd
1,"AKPSRISTVV [IQSEC2, Q5JU85]",below the threshold

# Target: T3, DFNB31_3, Q9P202
# T3 sequence (Q9P202 811-907, limits assumed, looked up): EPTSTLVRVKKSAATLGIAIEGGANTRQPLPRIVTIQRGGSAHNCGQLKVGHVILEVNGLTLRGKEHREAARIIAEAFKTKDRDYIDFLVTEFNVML
# Test: holdup assay
# Set-up: key: below the threshold = too weak to quantify, mostly under pKd 3.1 to 4
# Conditions: plain residues with an end cap or a label only (N-terminal biotin on a linker: ado-ado)
row,Binder,pKd
1,"AKPSRISTVV [IQSEC2, Q5JU85]",below the threshold

# Target: DLG1_1, Q12959
# Test: holdup assay
# Set-up: key: below the threshold = too weak to quantify, mostly under pKd 3.1 to 4
# Conditions: plain residues with an end cap or a label only (N-terminal biotin on a linker: ado-ado)
row,Binder,pKd
1,"AKPSRISTVV [IQSEC2, Q5JU85]",4.81

# Target: DLG1_2, Q12959
# Test: holdup assay
# Set-up: key: below the threshold = too weak to quantify, mostly under pKd 3.1 to 4
# Conditions: plain residues with an end cap or a label only (N-terminal biotin on a linker: ado-ado)
row,Binder,pKd
1,"AKPSRISTVV [IQSEC2, Q5JU85]",5.52

# Target: DLG2_3, Q15700
# Test: holdup assay
# Set-up: key: below the threshold = too weak to quantify, mostly under pKd 3.1 to 4
# Conditions: plain residues with an end cap or a label only (N-terminal biotin on a linker: ado-ado)
row,Binder,pKd
1,"AKPSRISTVV [IQSEC2, Q5JU85]",4.34

# Target: FRMPD2_2, Q68DX3
# Test: holdup assay
# Set-up: key: below the threshold = too weak to quantify, mostly under pKd 3.1 to 4
# Conditions: plain residues with an end cap or a label only (N-terminal biotin on a linker: ado-ado)
# Sequence of FRMPD2_2, Q68DX3 (Q68DX3 944-1038): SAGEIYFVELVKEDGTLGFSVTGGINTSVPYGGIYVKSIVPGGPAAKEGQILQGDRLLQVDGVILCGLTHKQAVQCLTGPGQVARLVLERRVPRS
row,Binder,pKd
1,"AKPSRISTVV [IQSEC2, Q5JU85]",below the threshold

# Target: FRMPD2_3, Q68DX3
# Test: holdup assay
# Set-up: key: below the threshold = too weak to quantify, mostly under pKd 3.1 to 4
# Conditions: plain residues with an end cap or a label only (N-terminal biotin on a linker: ado-ado)
# Sequence of FRMPD2_3, Q68DX3 (Q68DX3 1073-1166): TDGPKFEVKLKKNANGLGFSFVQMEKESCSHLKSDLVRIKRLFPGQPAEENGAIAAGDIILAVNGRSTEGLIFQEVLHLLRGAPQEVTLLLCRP
row,Binder,pKd
1,"AKPSRISTVV [IQSEC2, Q5JU85]",below the threshold

# Target: GIPC2, Q8TF65
# Test: holdup assay
# Set-up: key: below the threshold = too weak to quantify, mostly under pKd 3.1 to 4
# Conditions: plain residues with an end cap or a label only (N-terminal biotin on a linker: ado-ado)
# Sequence of GIPC2, Q8TF65 (Q8TF65 112-203): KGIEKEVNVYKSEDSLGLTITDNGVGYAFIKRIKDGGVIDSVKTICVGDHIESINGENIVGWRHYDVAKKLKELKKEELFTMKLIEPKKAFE
row,Binder,pKd
1,"AKPSRISTVV [IQSEC2, Q5JU85]",below the threshold

# Target: GRASP, Q7Z6J2
# Test: holdup assay
# Set-up: key: below the threshold = too weak to quantify, mostly under pKd 3.1 to 4
# Conditions: plain residues with an end cap or a label only (N-terminal biotin on a linker: ado-ado)
# Sequence of GRASP, Q7Z6J2 (Q7Z6J2 96-193): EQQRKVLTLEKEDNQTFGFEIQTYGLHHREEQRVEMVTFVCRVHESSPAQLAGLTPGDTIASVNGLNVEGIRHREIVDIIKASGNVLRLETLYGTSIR
row,Binder,pKd
1,"AKPSRISTVV [IQSEC2, Q5JU85]",4.41

# Target: GRID2IP_2, A4D2P6
# Test: holdup assay
# Set-up: key: below the threshold = too weak to quantify, mostly under pKd 3.1 to 4
# Conditions: plain residues with an end cap or a label only (N-terminal biotin on a linker: ado-ado)
# Sequence of GRID2IP_2, A4D2P6 (A4D2P6 272-370): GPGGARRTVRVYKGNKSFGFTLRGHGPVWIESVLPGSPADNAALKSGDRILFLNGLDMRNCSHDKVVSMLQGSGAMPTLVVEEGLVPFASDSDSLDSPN
row,Binder,pKd
1,"AKPSRISTVV [IQSEC2, Q5JU85]",3.77

# Target: GRIP2_5, Q9C0E4
# Test: holdup assay
# Set-up: key: below the threshold = too weak to quantify, mostly under pKd 3.1 to 4
# Conditions: plain residues with an end cap or a label only (N-terminal biotin on a linker: ado-ado)
# Sequence of GRIP2_5, Q9C0E4 (Q9C0E4 544-642): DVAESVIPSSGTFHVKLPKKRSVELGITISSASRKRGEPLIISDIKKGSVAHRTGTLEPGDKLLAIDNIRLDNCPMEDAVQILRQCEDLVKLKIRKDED
row,Binder,pKd
1,"AKPSRISTVV [IQSEC2, Q5JU85]",below the threshold

# Target: GRIP2_6, Q9C0E4
# Test: holdup assay
# Set-up: key: below the threshold = too weak to quantify, mostly under pKd 3.1 to 4
# Conditions: plain residues with an end cap or a label only (N-terminal biotin on a linker: ado-ado)
# Sequence of GRIP2_6, Q9C0E4 (Q9C0E4 648-740): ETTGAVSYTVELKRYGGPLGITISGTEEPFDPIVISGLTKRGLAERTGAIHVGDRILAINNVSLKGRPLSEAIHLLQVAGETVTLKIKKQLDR
row,Binder,pKd
1,"AKPSRISTVV [IQSEC2, Q5JU85]",below the threshold

# Target: IL16_3, Q14005
# Test: holdup assay
# Set-up: key: below the threshold = too weak to quantify, mostly under pKd 3.1 to 4
# Conditions: plain residues with an end cap or a label only (N-terminal biotin on a linker: ado-ado)
# Sequence of IL16_3, Q14005 (Q14005 1107-1207): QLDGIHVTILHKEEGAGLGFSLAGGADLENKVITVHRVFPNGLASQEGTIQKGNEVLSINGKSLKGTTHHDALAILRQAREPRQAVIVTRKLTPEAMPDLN
row,Binder,pKd
1,"AKPSRISTVV [IQSEC2, Q5JU85]",below the threshold

# Target: T4, LIN7A, O14910
# T4 sequence (O14910 103-200, limits assumed, looked up): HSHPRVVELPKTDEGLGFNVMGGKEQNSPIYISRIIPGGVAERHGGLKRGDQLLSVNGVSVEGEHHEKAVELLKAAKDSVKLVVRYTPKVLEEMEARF
# Test: holdup assay
# Set-up: key: below the threshold = too weak to quantify, mostly under pKd 3.1 to 4
# Conditions: plain residues with an end cap or a label only (N-terminal biotin on a linker: ado-ado)
row,Binder,pKd
1,"AKPSRISTVV [IQSEC2, Q5JU85]",below the threshold

# Target: MAGI2_2, Q86UL8
# Test: holdup assay
# Set-up: key: below the threshold = too weak to quantify, mostly under pKd 3.1 to 4
# Conditions: plain residues with an end cap or a label only (N-terminal biotin on a linker: ado-ado)
# Sequence of MAGI2_2, Q86UL8 (Q86UL8 410-522): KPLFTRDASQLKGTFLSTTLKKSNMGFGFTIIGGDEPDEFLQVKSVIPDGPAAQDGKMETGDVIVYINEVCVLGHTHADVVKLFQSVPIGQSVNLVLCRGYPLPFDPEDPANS
row,Binder,pKd
1,"AKPSRISTVV [IQSEC2, Q5JU85]",5.23

# Target: MAST1, Q9Y2H9
# Test: holdup assay
# Set-up: key: below the threshold = too weak to quantify, mostly under pKd 3.1 to 4
# Conditions: plain residues with an end cap or a label only (N-terminal biotin on a linker: ado-ado)
# Sequence of MAST1, Q9Y2H9 (Q9Y2H9 962-1065): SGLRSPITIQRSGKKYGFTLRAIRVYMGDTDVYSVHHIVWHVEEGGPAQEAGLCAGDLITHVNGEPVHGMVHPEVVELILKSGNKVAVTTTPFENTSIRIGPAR
row,Binder,pKd
1,"AKPSRISTVV [IQSEC2, Q5JU85]",4.28

# Target: T5, MPDZ_5, O75970
# T5 sequence (O75970 695-796, limits assumed, looked up): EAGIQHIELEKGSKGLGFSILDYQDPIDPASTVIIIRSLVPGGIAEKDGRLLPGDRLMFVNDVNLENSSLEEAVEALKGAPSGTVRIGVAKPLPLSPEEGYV
# Test: holdup assay
# Set-up: key: below the threshold = too weak to quantify, mostly under pKd 3.1 to 4
# Conditions: plain residues with an end cap or a label only (N-terminal biotin on a linker: ado-ado)
row,Binder,pKd
1,"AKPSRISTVV [IQSEC2, Q5JU85]",below the threshold

# Target: T6, MPP6, Q9NZW5
# T6 sequence (Q9NZW5 125-219, limits assumed, looked up): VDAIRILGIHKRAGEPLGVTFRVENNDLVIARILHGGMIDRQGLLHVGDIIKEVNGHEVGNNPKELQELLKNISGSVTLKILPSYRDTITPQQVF
# Test: holdup assay
# Set-up: key: below the threshold = too weak to quantify, mostly under pKd 3.1 to 4
# Conditions: plain residues with an end cap or a label only (N-terminal biotin on a linker: ado-ado)
row,Binder,pKd
1,"AKPSRISTVV [IQSEC2, Q5JU85]",below the threshold

# Target: NHERF2_2, Q15599
# Test: holdup assay
# Set-up: key: below the threshold = too weak to quantify, mostly under pKd 3.1 to 4
# Conditions: plain residues with an end cap or a label only (N-terminal biotin on a linker: ado-ado)
# Sequence of NHERF2_2, Q15599 (Q15599 142-238): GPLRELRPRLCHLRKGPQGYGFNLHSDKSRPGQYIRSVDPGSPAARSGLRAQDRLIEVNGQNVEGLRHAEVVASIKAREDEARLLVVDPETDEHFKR
row,Binder,pKd
1,"AKPSRISTVV [IQSEC2, Q5JU85]",below the threshold

# Target: T7, NHERF3_1, Q5T2W1
# T7 sequence (Q5T2W1 4-100, limits assumed, looked up): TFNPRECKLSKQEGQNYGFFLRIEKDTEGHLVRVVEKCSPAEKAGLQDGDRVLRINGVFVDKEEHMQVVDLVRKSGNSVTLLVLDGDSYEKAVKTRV
# Test: holdup assay
# Set-up: key: below the threshold = too weak to quantify, mostly under pKd 3.1 to 4
# Conditions: plain residues with an end cap or a label only (N-terminal biotin on a linker: ado-ado)
row,Binder,pKd
1,"AKPSRISTVV [IQSEC2, Q5JU85]",below the threshold

# Target: T8, NHERF3_4, Q5T2W1
# T8 sequence (Q5T2W1 373-468, limits assumed, looked up): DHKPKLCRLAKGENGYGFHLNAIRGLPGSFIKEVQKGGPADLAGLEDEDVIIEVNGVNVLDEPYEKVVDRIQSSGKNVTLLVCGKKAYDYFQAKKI
# Test: holdup assay
# Set-up: key: below the threshold = too weak to quantify, mostly under pKd 3.1 to 4
# Conditions: plain residues with an end cap or a label only (N-terminal biotin on a linker: ado-ado)
row,Binder,pKd
1,"AKPSRISTVV [IQSEC2, Q5JU85]",3.73

# Target: T9, PCLO, Q9Y6V0
# T9 sequence (Q9Y6V0 4491-4600, limits assumed, looked up): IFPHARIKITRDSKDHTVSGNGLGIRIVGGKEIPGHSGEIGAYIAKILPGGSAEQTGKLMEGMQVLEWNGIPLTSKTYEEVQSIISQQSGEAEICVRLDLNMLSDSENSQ
# Test: holdup assay
# Set-up: key: below the threshold = too weak to quantify, mostly under pKd 3.1 to 4
# Conditions: plain residues with an end cap or a label only (N-terminal biotin on a linker: ado-ado)
row,Binder,pKd
1,"AKPSRISTVV [IQSEC2, Q5JU85]",below the threshold

# Target: T10, PDZD2_2, O15018
# T10 sequence (O15018 329-429, limits assumed, looked up): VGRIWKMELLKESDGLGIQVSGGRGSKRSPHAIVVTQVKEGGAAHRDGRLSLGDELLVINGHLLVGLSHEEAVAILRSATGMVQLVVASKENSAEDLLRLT
# Test: holdup assay
# Set-up: key: below the threshold = too weak to quantify, mostly under pKd 3.1 to 4
# Conditions: plain residues with an end cap or a label only (N-terminal biotin on a linker: ado-ado)
row,Binder,pKd
1,"AKPSRISTVV [IQSEC2, Q5JU85]",4.29

# Target: T11, SIPA1L2, Q9P2F8
# T11 sequence (Q9P2F8 945-1036, limits assumed, looked up): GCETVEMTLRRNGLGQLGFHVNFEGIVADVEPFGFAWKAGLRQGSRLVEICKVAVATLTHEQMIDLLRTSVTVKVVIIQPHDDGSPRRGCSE
# Test: holdup assay
# Set-up: key: below the threshold = too weak to quantify, mostly under pKd 3.1 to 4
# Conditions: plain residues with an end cap or a label only (N-terminal biotin on a linker: ado-ado)
row,Binder,pKd
1,"AKPSRISTVV [IQSEC2, Q5JU85]",below the threshold

# Target: T12, SNTA1, Q13424
# T12 sequence (Q13424 82-180, limits assumed, looked up): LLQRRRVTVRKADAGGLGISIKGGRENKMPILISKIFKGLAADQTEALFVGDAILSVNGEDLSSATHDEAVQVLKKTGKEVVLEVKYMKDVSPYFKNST
# Test: holdup assay
# Set-up: key: below the threshold = too weak to quantify, mostly under pKd 3.1 to 4
# Conditions: plain residues with an end cap or a label only (N-terminal biotin on a linker: ado-ado)
row,Binder,pKd
1,"AKPSRISTVV [IQSEC2, Q5JU85]",4.12
